{
  "source": "patent US20220332804A1",
  "about": "(CSL INNOVATION, published 2022)",
  "binders": {"B1": {"name": "RF16-214 (antibody, V domains shown)", "VH": "EVQLLESGGGLVQPGGSLRLSCAASGFTFSWYQMMWVRQAPGKGLEWVSRIYPSGGGTAYADSVKGRFTISRDNSKNTLYLQMNSLRAEDTAVYYCARDAGYGDNWGQGTLVTVSS", "VL": "QSALTQPPSVSVSPGQTASITCSGDKLGEKYASWYQQKAGQSPVMVIYQDRKRPSGIPERFSGSNSGNTATLTISGTQAMDEADYYCQAWDTRAVVFGGGTKLTVLG"}},
  "experiment_in_all_cases": "SPR, mAb captured, C2 mutant analyte;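 also: Anti-C2 mAbs captured on goat anti-human IgG Biacore CM5 chips, alanine or serine C2 surface mutants flowed over at 37 °C, double-referenced sensorgrams fitted to a 1:1 binding model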",
  "key": {"human C2 E267A": {"molecular_target": "T1, human C2 E267A (human, UniProt P06681 21-752)", "T1 sequence": "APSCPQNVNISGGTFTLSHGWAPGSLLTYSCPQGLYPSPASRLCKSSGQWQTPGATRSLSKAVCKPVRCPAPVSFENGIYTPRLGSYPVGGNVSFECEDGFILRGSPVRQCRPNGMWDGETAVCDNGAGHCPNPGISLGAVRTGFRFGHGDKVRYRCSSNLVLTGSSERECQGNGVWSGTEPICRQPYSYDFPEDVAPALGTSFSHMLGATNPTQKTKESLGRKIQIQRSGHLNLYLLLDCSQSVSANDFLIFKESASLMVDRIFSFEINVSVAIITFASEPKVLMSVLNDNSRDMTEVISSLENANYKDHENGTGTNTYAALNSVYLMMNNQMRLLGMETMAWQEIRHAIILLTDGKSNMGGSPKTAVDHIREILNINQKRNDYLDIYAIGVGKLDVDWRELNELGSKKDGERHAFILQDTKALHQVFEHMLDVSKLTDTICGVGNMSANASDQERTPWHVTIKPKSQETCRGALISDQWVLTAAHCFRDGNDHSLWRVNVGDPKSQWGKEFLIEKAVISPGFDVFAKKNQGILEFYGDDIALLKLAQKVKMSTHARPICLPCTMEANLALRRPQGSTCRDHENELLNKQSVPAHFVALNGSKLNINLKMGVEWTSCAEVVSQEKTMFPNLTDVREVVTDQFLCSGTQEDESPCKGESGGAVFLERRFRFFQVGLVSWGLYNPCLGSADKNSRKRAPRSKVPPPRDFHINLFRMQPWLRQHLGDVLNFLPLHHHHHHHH"}, "human C2 T317A": {"molecular_target": "T2, human C2 T317A (human, UniProt P06681 21-752)", "T2 sequence": "T1 sequence with A247E, T297A"}, "human C2 V418A": {"molecular_target": "T3, human C2 V418A (human, UniProt P06681 21-752)", "T3 sequence": "T1 sequence with A247E, V398A"}, "human C2 E450A": {"molecular_target": "T4, human C2 E450A (human, UniProt P06681 21-752)", "T4 sequence": "T1 sequence with A247E, E430A"}},
  "note": "Residue numbers refer to the chain shown, from its start.",
  "data": [
    {"binder": "B1", "values": [
      {"measurement": "Kd", "setting": "human C2 E267A", "result": 26.2, "unit": "nM"},
      {"measurement": "Kd", "setting": "human C2 T317A", "result": 27.9, "unit": "nM"},
      {"measurement": "Kd", "setting": "human C2 V418A", "result": 15.6, "unit": "nM"},
      {"measurement": "Kd", "setting": "human C2 E450A", "result": 627, "unit": "nM"}
    ]}
  ]
}
